Consider five molecules from PMC5485662 (Nature medicine, 2016).

For test [1], the target named is HA ectodomain of wild-type A/California/07/2009 (pdm2009) (Influenza A virus A/California/07/2009 …). Briefly: BLI. For orientation: BLI is a label-free optical method that tracks binding on a fibre tip over time.
The target of test [2] is T1, HA of A/USSR/92/1977 (Influenza A virus A/USSR/92/1977 …, UniProt P03453, strain). Briefly: BLI.
For test [3], the target named is T1, HA of A/USSR/92/1977. Briefly: cell-based or functional assay.

B1: Fab of antibody D1 H1–12 (donor 1, 2011–12 cohort) (Fab, V domains shown)
VH: QVQLQESGPGLVKPSETLSLTCSVSGGSLNTYYWSWIRQPPGKGLEWIGYIYYSGNTNYNPSLKSRVAISVDTSKNQFSLKLTSVTAADTAVYYCARLYMVRGELWGFYFDHWGQGTLVTVSS
VL: QSVLTQPASVSGSPGQSITISCTGTSSDVGSYNLVSWYQHHPGKAPKLMIYEDIERPSGVSNRFSGSKSGNTASLTISGLQAEDEGDYYCCSYAGSSTSWVFGGGTKLTVL
As usually defined, the Kd is the concentration at which binding is half-saturated. Higher therefore signals a looser complex. For B1, in test [1], the Kd was over 100 µM.

B2: Fab of antibody D1 H1–53 (donor 1, 2011–12 cohort) (Fab, V domains shown)
VH: QVQLQESGPGLVKPSETLSLTCTVSGGSITNYFWSWIRQPPGKGLEWIGYISYSGSTNHNPSLKSRVTMSLDTSKKQFSLKLSSVTAADMAVYFCARGERFGESPYYSYHMDVWGQGTTVTVSS
VL: not shown
B2 had a Kd in test [1] of over 100 µM.

B3: Fab of inferred intermediate I-2 of lineage CL6515 (Fab, V domains shown)
VH: EVQLVQSGAEVKKPGESLKISCKGSGYSFTSYWIGWVRQMPGKGLEWMGIIYPGDSDTRYSPSFQGQVTISADKSISTAYLQWSSLKASDTAMYYCARVVADREGFGYYYGMDVWGQGTTVTVSS
VL: EIVLTQSPGTLSLSPGERATLSCRASQSVDSSSLAWYQQKPGQAPRLLIYAASSRATGIPDRFSGSGSGTDFTLTISRLEPEDFAVYYCQQCGSSPWTFGQGTKVEIK
The molecule B3 yielded a Kd in the test with HA of A/USSR/92/1977 [2] of 1.9 µM. For the same molecule, in the test with HA of A/USSR/92/1977 [3], the “IC50 of neutralisation (microneutralization, MDCK cells) of A/USSR/92/1977 virus” value amounted to 0.012 µg/mL.

B4:  (Fab, V domains shown)
VH: B3 VH
VL: not shown
Take B4: the Kd in test [1] was over 50 µM.

B5: Fab of antibody D1 H1–2 (donor 1, 2011–12 cohort) (Fab, V domains shown)
VH: QVQLQESGPGLVKPSETLSLRCAVSGSSISSLFYWGWIRQPPGKGPEWIGSIYHSGSTYYNPSLKSRVTISVDASKTQFSLNLNSVTAADTAVYYCAREYRILDERSNYFDAWGQGSPVTVSS
VL: SYELTQPPSVSVSPGQTVSITCSGDKMGDKYASWYQQKPGQSPFLVIYQDNKRPSGIPERFSGSNSGNTATLTISGTQAMDEADYYCQTWDISSGVVFGGGTKL
On to B5, for which, in test [1], the Kd is over 100 µM.
